Test results reported in patent publication US20090041763A1 (UNIVERSITY OF ULSAN FOUNDATION FOR INDUSTRY COOPERATION, published 2009).

Target: T1, 4-1BB-GST fusion protein (human 4-1BB fused to glutathione-S-transferase, expressed in E. coli) (human, UniProt Q07011 24-186)
T1 construct: The order of the parts follows the printed name 4-1BB-GST; not shown: glutathione-S-transferase (GST) from the pGEX3 vector (Pharmacia)
Experiment: ELISA, transfectant culture supernatant on 4-1BB-GST antigen; reference is 293 EBNA cultured supernatant
Description: The completely humanized sequence to constant region was subcloned to pcDNA, a eukaryote expressing vectors, transfected into 293EBNA cells and serial analyses i.e., ELISA and western blotting analysis were performed using by the cell medium. 4-1BB-GST was used as an antigen for ELISA and each 50 numbers of transfectant medium was used therein.

B1: completely humanized antibody HBBK4-75 (H2L2) (antibody, V domains shown)
VH: QVQLQQSGAEVIKPGASVKLSCKASGYTFSSYWMHWVRQAPGQGLEWIGEINPGNGHTNYNEKFKSRATLTGDTSTSTVYMELSSLRSEDTAVYYCARSFTTARAFAYWGQGTLVTVSS
VL: DIVMTQSPAFLSVTPGEKVTITCRASQTISDYLHWYQQKPDQAPKLLIKYASQSISGIPSRFSGSGSGTDFTFTISSLEAEDAATYYCQDGHSFPPTFGQGTKLEIKT
notes: the VH is the same in both; also called clone 75; HBBK4-75/pcDNA
  fold over negative control (ELISA): ~15 times
